According to patent US20230034906A1 (TRINOMAB BIOTECH, published 2023):

What was measured:
[1] = biological target: T1, gB_Towne protein with N281 mutated into glutamine (human cytomegalovirus, strain Towne, UniProt F5HB53 25-700); assay: indirect ELISA, antibody titrated on gB glycoprotein mutant
T1 chain: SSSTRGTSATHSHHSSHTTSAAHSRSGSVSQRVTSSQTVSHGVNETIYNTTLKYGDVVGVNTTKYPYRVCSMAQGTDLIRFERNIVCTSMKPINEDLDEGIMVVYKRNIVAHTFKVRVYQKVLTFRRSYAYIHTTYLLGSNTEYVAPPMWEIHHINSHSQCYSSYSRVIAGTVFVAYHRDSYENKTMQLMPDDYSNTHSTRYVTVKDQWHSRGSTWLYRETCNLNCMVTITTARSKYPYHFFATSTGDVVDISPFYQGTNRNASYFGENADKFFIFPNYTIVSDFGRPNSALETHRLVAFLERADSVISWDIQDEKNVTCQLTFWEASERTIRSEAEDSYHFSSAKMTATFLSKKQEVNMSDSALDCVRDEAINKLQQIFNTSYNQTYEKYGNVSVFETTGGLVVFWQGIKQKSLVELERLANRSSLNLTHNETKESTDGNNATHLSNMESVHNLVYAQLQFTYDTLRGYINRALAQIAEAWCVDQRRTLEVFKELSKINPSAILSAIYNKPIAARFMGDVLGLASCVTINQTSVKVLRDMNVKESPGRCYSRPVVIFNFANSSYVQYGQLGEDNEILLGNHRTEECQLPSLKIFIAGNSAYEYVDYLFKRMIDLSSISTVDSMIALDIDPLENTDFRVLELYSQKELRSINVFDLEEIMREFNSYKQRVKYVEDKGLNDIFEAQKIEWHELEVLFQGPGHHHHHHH

[2] = biological target: T2, gB_Towne protein with N417 mutated into glutamine (human cytomegalovirus, strain Towne, UniProt F5HB53 25-700); assay: as above
T2 chain: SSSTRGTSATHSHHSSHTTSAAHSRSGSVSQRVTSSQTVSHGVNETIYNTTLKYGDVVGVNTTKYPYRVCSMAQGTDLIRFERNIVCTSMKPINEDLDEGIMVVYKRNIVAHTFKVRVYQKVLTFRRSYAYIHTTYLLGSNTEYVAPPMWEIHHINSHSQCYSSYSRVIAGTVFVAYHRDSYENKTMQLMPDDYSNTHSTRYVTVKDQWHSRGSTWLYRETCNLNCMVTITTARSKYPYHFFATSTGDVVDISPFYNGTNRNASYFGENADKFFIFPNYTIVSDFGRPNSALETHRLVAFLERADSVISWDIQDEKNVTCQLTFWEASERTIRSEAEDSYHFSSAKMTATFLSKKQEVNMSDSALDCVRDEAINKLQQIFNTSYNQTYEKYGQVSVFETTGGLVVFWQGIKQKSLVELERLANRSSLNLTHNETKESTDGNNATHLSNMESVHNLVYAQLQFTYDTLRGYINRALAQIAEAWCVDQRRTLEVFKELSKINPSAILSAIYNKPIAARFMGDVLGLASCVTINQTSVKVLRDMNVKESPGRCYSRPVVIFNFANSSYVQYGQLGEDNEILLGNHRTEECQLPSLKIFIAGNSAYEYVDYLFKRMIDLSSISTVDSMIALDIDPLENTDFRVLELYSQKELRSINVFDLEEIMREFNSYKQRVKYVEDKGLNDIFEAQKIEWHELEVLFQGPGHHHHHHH

[3] = biological target: T3, N208Q mutant of gB glycoprotein (gB_Towne protein) (human cytomegalovirus, strain Towne, UniProt F5HB53 25-700); assay: as above
T3 construct: also called gB glycoprotein N208Q mutant
T3 chain: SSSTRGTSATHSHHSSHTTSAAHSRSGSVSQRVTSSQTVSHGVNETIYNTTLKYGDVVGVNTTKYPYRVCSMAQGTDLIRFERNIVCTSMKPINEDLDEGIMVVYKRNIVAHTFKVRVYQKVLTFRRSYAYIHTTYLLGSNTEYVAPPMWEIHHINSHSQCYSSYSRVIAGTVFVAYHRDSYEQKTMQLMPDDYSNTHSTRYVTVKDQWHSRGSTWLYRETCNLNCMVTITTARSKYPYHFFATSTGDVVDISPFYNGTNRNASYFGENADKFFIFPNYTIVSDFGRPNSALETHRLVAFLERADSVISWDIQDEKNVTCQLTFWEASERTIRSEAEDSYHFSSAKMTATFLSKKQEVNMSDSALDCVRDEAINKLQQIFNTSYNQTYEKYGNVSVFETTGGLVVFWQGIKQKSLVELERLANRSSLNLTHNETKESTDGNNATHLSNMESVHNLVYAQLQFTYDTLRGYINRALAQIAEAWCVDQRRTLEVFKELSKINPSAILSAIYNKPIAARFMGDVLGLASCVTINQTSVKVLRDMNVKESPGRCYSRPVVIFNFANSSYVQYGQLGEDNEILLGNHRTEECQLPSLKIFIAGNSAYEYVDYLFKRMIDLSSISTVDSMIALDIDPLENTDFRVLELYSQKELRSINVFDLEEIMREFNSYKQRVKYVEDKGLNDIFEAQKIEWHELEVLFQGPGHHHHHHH

[4] = biological target: T4, HCMV gB glycoprotein of standard strain Towne (gB_Towne strain) (human cytomegalovirus, strain Towne, UniProt F5HB53 25-700); assay: SPR (Biacore), antibody captured on anti-human IgG (Fc) CM5 chip, gB glycoprotein as analyte
T4 construct: also called antigen protein gB0049

Measured: binding result

B1: TRN1019 (antibody, V domains shown)
VH: QVQLVQSGAEVKKPGESLKISCKGSGYTFTNYWIGWVRQMPGAGLEWMAIIFPRDSYSAYSPSFQGRVTISVDKSISTAYLHWSSLEASDTAVYYCAIYNDLRSGNSWGQGTPLIVSS
VL: DIQMTQSPSSLSASVGDRVTITCRASQSITKYLNWYQQKPGRAPKLLIHTTSTLQSGVPSRFSGSGSGTDFTLTISSLQLEDFGTYYCQQSFSTLWTFGQGTKLDIKR
notes: Fully human antibody; kappa light chain
binds: all assays above
